# Experimental data from the nanobody polyreactivity screen of Harvey et al. (2022).
# Assay: yeast display, Sf9 membrane polyspecificity reagent, FACS + sequencing; frameworks hold sequencing errors
# How it was run: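 Using colony PCR, genes from sorted yeast display clones were amplified, then sequenced on MiSeq at 2 × 250 and filtered by CDR length. The clones had been stained with 10% biotinylated, detergent-solubilized Sf9 membrane reagent for 1 hour at 4 °C and sorted by FACS into low and high (top ~1%) gates on anti-HA and streptavidin fluorescence. Polyreactivity labels come from the gate of origin.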
row,Sequence,polyreactivity (PSR sort gate)
1,QVQLVESGGGLVQAGGSLRLSCSASGSTFFSYAMGWYRQAPGKERELVATITSGGSTFADSVKWRFTISRDNAKNTVYLQMNSLKPEDTAVYYCNTDVVDCLFYHCECRFNYLGQGTQVTVSS,low polyreactivity
2,QVQLVESGGGLVQAGGSLRLSCSASGSTFGYYAMGWYRQAPGKERELVAAITRSGGSTFYADSVKGRFTISRDNAKNTVYLQMNSLKPEDTAVYYCAATYWPYRPGYYYWGQGTQVTVSS,high polyreactivity
3,QVQLVESGGGLVQAGGSLRLSCSASGSTFSAYVMGWYRQAPGKERKLVAAITRSGVSTYYADSVKGRFTISRDNAKNTVYLQMNSLKPEDTAVYYCNKRVGFLYKYDYWGQGTQVTVSS,high polyreactivity
4,QVQLVESGGGLVQAGGSLRLSCSASGSTFTAYAMGWSRQAPGKERELVATISDSGGSTYYADSVKGRFTISRDNAKNTVYLQMNSLKPEDTAVYYCAADVYSYFYQVVYTFDYWGQCTQVTVSS,low polyreactivity
5,QVQLVESGGGLVQAGGSLRLSCSASGSTFTWYAMGWYRQATGKERELVADISNGGGSTYYADSVKGRFTISRDNEKNTVYLQINSLKPEDTEVYYCAAESIPYYRYDYWGQGTQVTVSS,low polyreactivity
6,QVQLVESGGGLVQAGGSLRLSCSASGYISHYAMGWYRQAPGKERELVAAISRRGGSTYYADSVKGRFTISRDNAKNTVYLQMNSLKPEDTAVYYCNKATSYFTVRGYDYCGQGTQVTVSS,high polyreactivity
7,QVQLVESGGGLVQAGGSLRLSCSASGYTFPLYAMGWYRQAPGKERELVADINIGGASTYYADSVKGRFTISRDNAKNTVYLQMNSLKPEDTAVYYCAIQYYDGYFPTFEYDYWGQGTQVTVSS,low polyreactivity
8,QVQLVESGGGLVQAGGSLRLSCSASGYTFYLYTMGWYRQAPGTERELVAAISGSGTSTYYADSVKGRFTISRDNAKNTVYLQMNSLKPEDTAVYYCAAEDYSRDVYSYYYWGQGTQVTVSS,low polyreactivity
9,QVQLVESGGGLVQAGGSLRLSCSASVRTFYRNSMGWYRQAPGKEREFVAVISVSGGSTYYADSVKGRFTISRDNAKNTVYLQMNSLKPEDTAVYYCAADEYYTFSSFELRRMDYWGQGTQVTVSS,low polyreactivity
10,QVQLVESGGGLVQAGGSLRLSCSATGLTFRPYAMGWYRQAPGTERELVAGITRGGSTKYADSVKGRFTISRDNAKNTVYLLMISLKPEDTAVYYCAVERGSYSYDRPFYYWGQGTQVTVSS,high polyreactivity
11,QVQLVESGGGLVQAGGSLRLSCSATGSTFTINSMGWYRQAPGKERELVAATSKRGTNTYYADSVKGRFTISRDNAKNTVYLQMNSMKTEDSAVYYCKAPGHRQNGLGDYWGQGTQVTVSS,high polyreactivity
12,QVQLVESGGGLVQAGGSLRLSCSAYGSILWYNAMGWYRQAPGKERELVAAINRGGSTNYADSVKGRFTISRDNAKNTVYLQMNSLKPEDTAVYYCAADRLLVSAGGVQFDYWGQGTQVTVSS,low polyreactivity
13,QVQLVESGGGLVQAGGSLRLSCSDSGFTFARYTMGWYRQPPGKESELVAGISRSTGRTYYADSVKGLFTISRDNAKNTVYLQMNSLKPEDTAVYYCAARATRSLSRSMDYWGQGTQVTVSS,high polyreactivity
14,QVQLVESGGGLVQAGGSLRLSCSSSGLTLYRYAMGWYRQAPGKERELVAGISWGGGSTYYADSVKGRFTISRDNAKNTVFLQMNSLKPEGNAVYYCAAGRLLYIPRYYYWGQGTQVTVSS,high polyreactivity
15,QVQLVESGGGLVQAGGSLRLSCTASGSTYVAYAMGLYRQAPGKERELVAAITSSGGRTYYADSVKGRFTISRDNAKNTVYLQMNSLKPEDTAVYYCDAVTHGRYDWGQGTQVTVSS,high polyreactivity
16,QVQLVESGGGLVQAGGSLRLSCVASGRIFARNAMGWYRQAPGKERELVAAISGSGVRTYYADSVKGRFTISRDNAKNTVYLQMNSLKPEDTAVYYCNAVSGGHRSRYGYWGQGTQVTVSS,high polyreactivity
17,QVQLVESGGGLVQAGGSLRLSCVASGRIFLTYAMGWYRQAPGKERELVAAISYSGASTYYADSVKGRFTISRDNAKNTVYLQMNSLKPEDTSVYYCATERVGTPRMNYWGQGTQVTVSS,high polyreactivity
18,QVQLVESGGGLVQAGGSLRLSCVASGRIFYNYAMGWYRQAPGNERELVAAISSSGGRTYYADSVKGRFTISRDNAKNTVYLQMNSLKPEDTAVYYCAADFHDASRPYGSWGQGTQVTVSS,low polyreactivity
19,QVQLVESGGGLVQAGGSLRLSCVASGSILAYYAMGWYRQAPGKERELVAAISRSGGSTYYADSVKRRFTISRDNAKNTVNLQMNSLKPEDTAVYYCAADFRRWQYNTVNEFGYWGQGTQVTVSS,high polyreactivity
20,QVQLVESGGGLVQAGGSLRLSFAASGFIFDKYAMGWYRQAPGKERELVATITSGGSTYYADSVKGRFTISRDNAKNYVYLQMYSLKREDTADYYCAALDYGYRWYRYYYWGQGSQVTVSS,high polyreactivity
21,QVQLVESGGGLVQAGGSLRLSFAASGFIFDYYAMGGYRQEPGKDRELVAAISSSGRTSYADSVKGRFTISRDNAKNTVYLQMNSLKPEDTAVYYCNATWRWTRRGYDYWGQGTQVTVSS,low polyreactivity

row,Sequence,polyreactivity (PSR sort gate)
1,QVQLVESGGGLVQAGGSLRLSFAASGFIFYRNTMGWYRQAPGKERELVAGITSGGRTNYADSVKGRFTISRDNAKNTVYLQMNSLKPEYTAVYYCNRVVYTYISTGSRHGRYNYWGQGTQVTVSS,high polyreactivity
2,QVQLVESGGGLVQAGGSLRLSFAASGFIIGRNAMGWYRQAPGKEREMVAAITSGGNTYYADSVKGRFTISRDNAKNTVYLQMNSLKPEDTAVYYCAARRRYPLVDAGYYWGQGTQVTVSS,high polyreactivity
3,QVQLVESGGGLVQAGGSLRLSFAASGFTFGWYAMGWYRQAPGKGRELVAAISGGDSRTYADSVKGRFTISRDNAKNTVYLQMNSLKPADTAVYYCNAENRQLYWWTVARSHYGYWGQGTQVTVSS,low polyreactivity
4,QVQLVESGGGLVQAGGSLRLSFAASGFTFKYYAMGWYRPAPGKERELVAAIRSGGSTYYADSVKGRFTISRDNAKNTVYLQMNSLKPEDTAVYYCNAPAFYRYGLNYWGQGTQVTVSS,high polyreactivity
5,QVQLVESGGGLVQAGGSLRLSFAASGFTFVNYAMGWYRQAPGKDRELVAAIRRSGSRTYYADSVKGRFTISRDKAKNTVYLQKNSLKPEDTAVYYCAAVWYSLYGNWGQGNQVTVSS,low polyreactivity
6,QVQLVESGGGLVQAGGSLRLSFAASGIIFVGYAMGWYRQAPGKEMELVAAISTSSRTYYADSVKGRFTISRDNAKNTVYLQMNIQKPEDTAVYYCNARGTRWYYRHEYWGQGTQVTVSS,high polyreactivity
7,QVQLVESGGGLVQAGGSLRLSFAASGIILGSYAMGWYRQAPGKERELVAGITSGGGTYYADSVKGRFTISRDNAKNTVYLQMNSLKPEDTAVYYCAKLYLHYYRYGYWGQGTQVTVSS,low polyreactivity
8,QVQLVESGGGLVQAGGSLRLSFAASGINFEHNSMGWYRQAPGKERELVAVISKYGGRTYYADSVKGRFTISRDNAKNTVYLQMNSLKPEDTAVYYCAKRSPFITWNGISYEEYDYWGQGTQVTVSS,low polyreactivity
9,QVQLVESGGGLVQAGGSLRLSFAASGITFSLYVMGWYRQAPGKERELVAAISYRGGTTYYADSVKGRFTISRDNAKNTVYLQMNSLKPEDTAVYYCAARGSRDRQEAEYGYWGQGTQVTVSS,high polyreactivity
10,QVQLVESGGGLVQAGGSLRLSFAASGRIFAYYAMGCYRQAPGKERELVASISRSGGRTYYADSVKGRFTISRDNAKNTVYLQMNSLKPEDTAVYYFNRAVWFKSTVDYWGQGTQVTVSS,high polyreactivity
11,QVQLVESGGGLVQAGGSLRLSFAASGRIFGYYAMGWYRQAPGKERELVAAITTSDGSTYYADSVKGRFTISRDNAKNTVYLQMNSLKPEDTAVYYCNARRWGYQWRGDYWGQGTQVTVSS,high polyreactivity
12,QVQLVESGGGLVQAGGSLRLSFAASGRIFRSYAMGWYRQAPGKERELVAAITSGGSTYYADSVKGRFTISRDNAKNTVYLQLNSLKPEDTAVYYCNADYDVSSPRPAFDYWGQGTQVTVSS,low polyreactivity
13,QVQLVESGGGLVQAGGSLRLSFAASGRIFYSNARGWYRQAPGKERELVATITRSSGITYYADSVKGRFTISRDNAKNTVYLQMNSLKTEDTAVYYWADRYSNRWARVSGYDYWGQGTQVTVSS,high polyreactivity
14,QVQLVESGGGLVQAGGSLRLSFAASGRTFGYYAMGWYRHAPGKERELVAAITRNGGRTYYADSVKGRFTISSDNAKNTFYLQMNSLKPEDTAVYYCAKDQYKPEAFYYWGQGTQVTVSS,high polyreactivity
15,QVQLVESGGGLVQAGGSLRLSFAASGRTFSRYAMVWYRQAPGKERELVATISFGGSTYYADSVKGRFTISRDNAKNTVYLQMNSLKPEDTALYYCTARYYLNYRGRKYESWGQGTQVTVSS,high polyreactivity
16,QVQLVESGGGLVQAGGSLRLSFAASGSIFKGYTMGWYIQAPGKEREFVASISRRGGSTYYADSVKGRFTISRDNAKNTVYLQMNSLKPEYTAVYYCAKDYGKAYDYWGQGTQVTVSS,high polyreactivity
17,QVQLVESGGGLVQAGGSLRLSFAASGSIFPSYAMVWYRQAPGKERELVARISSGDDSTYYADSVKGRFTISRDNAKNTVYLQMNSLKPEDNAVYYCAADYPDVVYLEYDYWGQGTQVTVSS,low polyreactivity
18,QVQLVESGGGLVQAGGSLRLSFAASGSIFTPNVMGWYRPAPGKERELVAAISQSGGSTFYADSVKGRFTISRDNAKNTVYLQMNSLKPEDTAVYFCATEYYGPVYDLDYDYWGQGTQVTVSS,low polyreactivity
19,QVQLVESGGGLVQAGGSLRLSFAASGSIFYAYAMGWYRQAPGKERELVAGISGGGSTNYADSVKGRFTISRDNAKNTVYLQMNSLKPEDTAVYYCAADGWLSATYDGLPDSDSWGQGTQVTVSS,high polyreactivity
20,QVQLVESGGGLVQAGGSLRLSFAASGSTFGLNAMGWYRQAPGKERELVAAITRSDITNYADSVKGRFTISRDNAKNTVYLQMNSLKPEDTAVYYCNKTPDRHRRYFGYGYWGQGTQVTVSS,low polyreactivity
